Reference: patent US20260092121A1 (TALEM THERAPEUTICS, published 2026)

B1: anti-CD3 Fab clone 3-A03 (Fab, V domains shown)
VH: EVQLVESGGGVVQPGRSLRLSCAASGFTFSSYAMHWVRQAPGKGLEWVSAISGSGGSTYYADSVKGRFTISRDNSKNTLYLQMNSLRAEDTAVYYCARDAHDYWGQGTLVTVSS
VL: QSVLTQPPSVSAAPGQKATISCSGGSSNLGNNYVSWYQQLPGTAPKLLIYDNNKRPSGIPDRFSGSKSGTSAALAITGLQTGDEADYYCGTWDSSLSAGVFGGGTKLTVL
notes: Fab, HEK293
B2: anti-CD3 Fab clone 1-C12 (Fab, V domains shown)
VH: QVQLQQSGPGLVKPSQTLSLTCAISGDSVSSNSAAWNWIRQSPSRGLEWLGRTYYRSKWYNDYAVSVKSRITINPDTSKNQFSLQLNSVTPEDTAVYYCARGITGTGYGMDVWGQGTLVTVSS
VL: QSVLTQPPSASGTPGQRVTISCSGSSSNIGRNHVYWYQQLPGTAPKLLIYNNDQRPSGVPDRFSGSKSGTSGSLTISGLQAEDEADYYCAAWDDSLSSGVFGGGTKVTVL
notes: Fab, HEK293
B3: anti-CD3 Fab clone 4-A01 (Fab, V domains shown)
VH: QVQLVQSEGGLVQPGGSLRLSCAASGFSFGSSAMSWVRQAPGRGLEWVSGISHSGSTTYYADSVKGRFTISRDNSKNTLYLQMNSLRVEDTAVYYCAKIGAYGYYFHYWGQGTLVTVSS
VL: NFMLTQPHSVSESPGKTVTISCTGSGGNIGNNYVQWYQQRPDSPPSTVIYDDSQRPSGVPDRFSGSIDRSSNSASLTISGLRTEDEADYYCQSSDSGRVVFGGGTKLTV
notes: Fab, HEK293
B4: anti-CD3 Fab clone 4-G03 (Fab, V domains shown)
VH: QVQLLQSAGGLVQPGGSLRLSCAASGYSFGSSAMSWVRQAPGRGLEWVSGISHSGSTTYYADSVKGRFTISRDNSKNTLYLQMNSLRAEDTAVYYCAKIGAYGYYFHYWGQGTLVTVSS
VL: NFMLTQPHSVSESPGKTVTISCTGNGGNIASNYVQWYQHRPDSAPIAVIYDDSQRPSGIPDRFSGSIDRSSNSASLTISGLRPEDEADYYCQSSDNANVVFGGGTKLTVL
notes: Fab, HEK293
B5: anti-CD3 Fab clone 7-E01 (Fab, V domains shown)
VH: QVQLQQSGGGLVQPGGSLRLSCAASGFSFGSSAMSWVRQAPGRGLEWVSGISHSGSTTYYADSVKGRFTISRDNSKNTLYLQMNSLRVEDTAVYYCAKIGAYGYYFHYWGQGTLVTVSS
VL: NFMLTQPHSVSESPGRTVTISCTRSSGSIASNYVQWYQQRPGSAPTTVIYEDNQRLSGVPDRFSGSIDRSSNSASLTISGLKTEDEADYYCQSSDDSNHLVFGGGTKLTVL
notes: Fab, HEK293
B6: anti-CD3 Fab clone 5-A05 (Fab, V domains shown)
VH: QVQLVQSGAEGKKPGSSVKVSCKASGGTFSSYAISWVRQAPGQGLEWMGGIIPIFGTANYAQKFQGRVTITADESTSTAYMELRSLRSDDTAVYYCARDAVVVADSGSMDVWGQGTTVTVSS
VL: not shown
notes: Fab, HEK293
B7: anti-CD3 Fab clone 1-H01 (Fab, V domains shown)
VH: QVQLVQSGAEVKKPGSSVKVSCKASGGTFSSYAISWVRQAPGQGLEWMGGIIPIFGTANYAQKFQGRVTITADESTSTAYMELSSLRSEDTAVYYCARDAVVVADSGSMDVWGQGTTVTVSS
VL: not shown
notes: Fab, HEK293
B8: anti-CD3 Fab clone 5-C03 (Fab, V domains shown)
VH: QVQLQQSGPGLVKPSQTLSLTCAISGDSVSSNSAAWNWIRQSPSRGLEWLGRTYYRSKWYNDYAVSVKSRITINPDTSKNQFSLQLNSVTPEDTAVYYCATWGMDVWGQGTTVTVSS
VL: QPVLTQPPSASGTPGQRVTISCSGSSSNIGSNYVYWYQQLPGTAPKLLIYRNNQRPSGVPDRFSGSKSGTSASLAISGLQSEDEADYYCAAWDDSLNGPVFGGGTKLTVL
notes: Fab, HEK293
B9: anti-CD3 Fab clone 2-C02 (Fab, V domains shown)
VH: QVQLQQSGPGLVKPSQTLSLTCAISGDSVSSNSAAWNWIRQSPSRGLEWLGRTYYRSKWYNDYAVSVKSRITINPDTSKNQFSLHLNSVTPEDTAVYYCATWGMDVWGQGTTVTVSS
VL: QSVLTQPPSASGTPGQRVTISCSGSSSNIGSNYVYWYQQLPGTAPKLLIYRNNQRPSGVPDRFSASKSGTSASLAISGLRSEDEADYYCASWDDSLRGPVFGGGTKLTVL
notes: Fab, HEK293
B10: anti-CD3 Fab clone 6-C04 (Fab, V domains shown)
VH: QVQLQQSGPGLVKPSQTLSLTCAISGDSVSSNSAAWNWIRQSPSRGLEWLGRTYYRSKWYNDYAVSVKSRITINPDTSKNQFSLHLNSVTPEDTAVYYCATWGMDVWGQGTMVTVSS
VL: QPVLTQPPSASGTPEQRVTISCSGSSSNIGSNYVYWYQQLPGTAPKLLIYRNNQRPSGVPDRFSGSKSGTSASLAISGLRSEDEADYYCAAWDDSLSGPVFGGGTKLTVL
notes: Fab, HEK293
B11: anti-CD3 Fab clone 3-A05 (Fab, V domains shown)
VH: QVQLLQSAAEVKKPGASVKVPCKASGYTFTGHYMHWVRQAPGQGLEWMGIINPRGGSTSYAQKFQGRVTMTRDTSTSTVYMELSSLRSEDTAVYYCARESIAAAGPYFDYWGQGTLVTVSS
VL: QSALTQPHSVSESPGKTVTISCTRTSGRIGSNYVQWYQQRPGSAPTVVIYEDNQRPSGVPDRFSGSIDSSTNSASLTISRLKTEDEADYYCQSYDSGVVVVFGGGTKLTV
notes: Fab, HEK293; not the anti-TrkB clone 3A05
B12: anti-CD3 Fab clone 3-C04 (Fab, V domains shown)
VH: EVQLVESGGGLVQPGGSLRLSCAASGFTFNNFYMNWVRQAPGKGLEWISTISRGGNSVYYADSVKGRFTVSRDNAKNSLFLQMDSLRDEDTAVYYCVRGGDFLYWGQGTLVTVSS
VL: NFMLTQPHSVSESPGKTVTISCTRSTGSIAGNYVQWYQQRPGSSPTTVILEDKQRPSGVPDRFSGSIDTSSNSATLTISGLKTEDEADYYCQSYDSGNVIFGGGTKLTVL
notes: Fab, HEK293
B13: anti-CD3 Fab clone 3-A06 (Fab, V domains shown)
VH: QVTLRESGGGLVKPGGSLRLSCSASGFTFRGFYMAWIRQAPGKGLEWVAYISSSGSAVYHADSVKGRFTVSRDNAKNLMYLEMNSLRADDTAVYYCARDGGTGGFDYWGQGTLVTVSS
VL: NFMLTQPHSVSESPGKTVAISCSRSSGSVASNYVQWYQQRPGNVPTTIIYQDNQRPSGVPDRFSGSIDKSSNSASLTISGLKTEDEADYYCQSYDGRRLIFGGGTKLTVL
notes: Fab, HEK293; not the anti-TrkB clone 3A06
B14: anti-CD3 Fab clone 3-B05 (Fab, V domains shown)
VH: QVQLLQSAGGVVQPGRSLRLSCAASGFTFSTYAVHWVRQAPGKGLEWVAAISYDGAGKYYGDSVRGRFTISRDDSKNTVYLQMNSLRAEDTAVYYCAGEHYTLTDEEFDFWGQGTLVTVSS
VL: QSVLTQPPSVSAAPGQKVTISCSGSASNIGNNYVSWYQQLPGTAPKLLIYDNNQRPSGIPDRFSGSKSGTSATLGITGLQTGDEADYYCGTWDTSLRGVVFGGGTKVTVL
notes: Fab, HEK293
B15: anti-CD3 Fab clone 8-B12 (Fab, V domains shown)
VH: HVQLVQSGGGSAQHGGSLRLSCAASGFTFNNSYMNWVRQAPGKRLEWISTISRGGNSVYYADSVKGRFTVSRDNTKNLTFLQMDSLRDEDTAVYYCAKGGDYLYWGQGTLVTVSS
VL: NFMLTQPHSVSESPGKTVTLSCTRSSGSIASKYVQWYQQRPGSAPTIVIFDDDRRPSGVPDRFSGSIDRSSNSASLTIFGMKTEDEADYYCQSYDSSNWVFGGGTKLTVL
notes: Fab, HEK293
B16: anti-CD3 Fab clone 3-B04 (Fab, V domains shown)
VH: QVQLVQSGGGLVQPGRSLRLSCAASGFTFDDFAMHWVRQAPGKGLEWVSGITWNSAATIYADSVKGRFTISRDNAKNSLYLQMNSLRPEDTAVYYCARDRGGPKDPFDIWGQGTMVTVSS
VL: QSVLTQPPSVSAAPGKKVTISCSGGSSNIGKNYVSWYQQLPGTAPKLLIYDNNKRPSGIPDRFSGSKSGTSATLGITGLQTGDEADYYCGTWDSSLSAVVFGGGTKLTVL
notes: Fab, HEK293; not the anti-TrkB clone 3B04
B17: anti-CD3 Fab clone 3-B06 (Fab, V domains shown)
VH: QVQLQQSGAEVKKPGASLKVSCKASGYTFTRYGFSWVRQAPGQGLEWMGWISAYNGNTNYAQKFQGRVTMTTDTSTSTAYMEMRSLRSDDTAVYYCARDRGYCSGGSCPGIDAFDIWGQGTMVTVSS
VL: SYVLTQPPSVSVAPGQTAKITCGGDNIENKYVHWYQQKPGQAPVVVVYDDSDRPSGIPDRFSGSNSGNTATLTITRVEAGDEADYYCQVWDSSSDRVVFGGGTKLTVL
notes: Fab, HEK293; not the anti-TrkB clone 3B06

Target: T1, biotinylated His-Avi-tagged human CD3δ/ε heterodimer (human, UniProt P07766 23-126; P04234 22-105, biotinylated)
T1 construct: bought, expressed from HEK293; also called CD30/8; Biotin-CD3
T1 sequence (P07766 23-126, stated change not applied, chain 1 of 2): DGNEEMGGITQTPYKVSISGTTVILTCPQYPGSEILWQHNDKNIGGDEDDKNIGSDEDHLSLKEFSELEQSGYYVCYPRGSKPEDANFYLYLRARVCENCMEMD
T1 sequence (P04234 22-105, stated change not applied, chain 2 of 2): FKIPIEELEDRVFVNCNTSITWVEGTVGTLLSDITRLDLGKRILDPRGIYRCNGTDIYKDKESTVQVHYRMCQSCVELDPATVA
Experiment: ELISA

| Binder | EC50 [µg/mL] |
| --- | --- |
| B1 | 5.2 |
| B2 | 19.2 |
| B3 | 19.5 |
| B4 | 16.8 |
| B5 | 7.9 |
| B6 | 4.3 |
| B7 | 6.8 |
| B8 | 23.9 |
| B9 | 23.9 |
| B10 | 47.7 |
| B11 | 11.4 |
| B12 | 5.9 |
| B13 | 3.6 |
| B14 | 7.2 |
| B15 | 38.2 |
| B16 | 10.9 |
| B17 | 16.9 |
